Patent US20260041793A1, “VIRAL VECTOR” (University of Sheffield, priority 2022, published 2026)

B1: GGAAGAUCUCGAUCUCGAAGC UUCAAGAGA GCUUCGAGAUCGAGAUCUUCC (nucleic acid)
chain 1: GGAAGATCTCGATCTCGAAGC
chain 2: GCUUCGAGAUCGAGAUCUUCC
chain 3: GGAAGAUCUCGAUCUCGAAGCUUCAAGAGAGCUUCGAGAUCGAGAUCUUCC
modifications: expressed or natural sequence; chain 1: target site or template, no part of the molecule
notes: shRNA targeting SRSF1
B2: GGGCCCAGAAGUCCAAGUUAU UUCAAGAGA AUAACUUGGACUUCUGGGCCC (nucleic acid)
chain 1: GGGCCCAGAAGTCCAAGTTAT
chain 2: AUAACUUGGACUUCUGGGCCC
chain 3: GGGCCCAGAAGUCCAAGUUAUUUCAAGAGAAUAACUUGGACUUCUGGGCCC
modifications: expressed or natural sequence; chain 1: target site or template, no part of the molecule
notes: shRNA targeting SRSF1
B3: GCAGAGGAUCACCACGCUAUU UUCAAGAGA AAUAGCGUGGUGAUCCUCUGC (nucleic acid)
chain 1: GCAGAGGATCACCACGCTATT
chain 2: AAUAGCGUGGUGAUCCUCUGC
chain 3: GCAGAGGAUCACCACGCUAUUUUCAAGAGAAAUAGCGUGGUGAUCCUCUGC
modifications: expressed or natural sequence; chain 1: target site or template, no part of the molecule
notes: shRNA targeting SRSF1

System: SRSF1
Test: Western immunoblotting of SRSF1 in human cells co-transfected with scAAV plasmids and C9ORF72-repeat reporter
Format: cell-based
Conditions: co-transfected with sense or antisense C9ORF72-repeat reporter, FIG. 4

Depletion of SRSF1, efficient depletion of SRSF1:
B1
B2
B3
